We go through 2 molecules from article PMC10392983, “Allosteric activation or inhibition of PI3Kγ mediated through conformational changes in the p110γ helical domain” (eLife, 2023).

“And” between values parts separate entries of the source, which are not always exact repeats. Equal values may be shown once.

Holding throughout (details): both partners purified
Assay [1] addresses T1, p110δ-p85 complex (Homo sapiens (assumed), UniProt O00329;O00459).
T1 construct: p110δ catalytic subunit of class IA PI3K; plasmid as previously described; p85 regulatory subunit; the legend says only p85; also called PI3Kδ
As to the kind of experiment: BLI; His-tagged NB7 (500 nM) immobilised on Anti-Penta-His biosensor; PI3K complexes in solution (dose response 50-1.9 nM; class IA comparison at 50 nM); 600 s association, 1200 s dissociation; 20 mM Tris pH 8.5, 100 mM NaCl, 50 mM ammonium sulfate, 0.1% BSA, 0.02% Tween 20; global fit to a 1:1 model.

In assay [2] the target is T2, p110γ-p101 complex (Homo sapiens p110γ; Sus scrofa p101, UniProt P48736;PDB).
T2 construct: Homo sapiens p110γ (PIK3CG), full-length; Sus scrofa p101 regulatory subunit of PI3Kγ; The purification tag stood on p101 only; also called PI3Kγ p110γ-p101; not shown: His10, N-terminal, cleaved; 2x Strep, N-terminal, cleaved
Described as above.
T2 sequence (P48736 whole entry, chain 1 of 2): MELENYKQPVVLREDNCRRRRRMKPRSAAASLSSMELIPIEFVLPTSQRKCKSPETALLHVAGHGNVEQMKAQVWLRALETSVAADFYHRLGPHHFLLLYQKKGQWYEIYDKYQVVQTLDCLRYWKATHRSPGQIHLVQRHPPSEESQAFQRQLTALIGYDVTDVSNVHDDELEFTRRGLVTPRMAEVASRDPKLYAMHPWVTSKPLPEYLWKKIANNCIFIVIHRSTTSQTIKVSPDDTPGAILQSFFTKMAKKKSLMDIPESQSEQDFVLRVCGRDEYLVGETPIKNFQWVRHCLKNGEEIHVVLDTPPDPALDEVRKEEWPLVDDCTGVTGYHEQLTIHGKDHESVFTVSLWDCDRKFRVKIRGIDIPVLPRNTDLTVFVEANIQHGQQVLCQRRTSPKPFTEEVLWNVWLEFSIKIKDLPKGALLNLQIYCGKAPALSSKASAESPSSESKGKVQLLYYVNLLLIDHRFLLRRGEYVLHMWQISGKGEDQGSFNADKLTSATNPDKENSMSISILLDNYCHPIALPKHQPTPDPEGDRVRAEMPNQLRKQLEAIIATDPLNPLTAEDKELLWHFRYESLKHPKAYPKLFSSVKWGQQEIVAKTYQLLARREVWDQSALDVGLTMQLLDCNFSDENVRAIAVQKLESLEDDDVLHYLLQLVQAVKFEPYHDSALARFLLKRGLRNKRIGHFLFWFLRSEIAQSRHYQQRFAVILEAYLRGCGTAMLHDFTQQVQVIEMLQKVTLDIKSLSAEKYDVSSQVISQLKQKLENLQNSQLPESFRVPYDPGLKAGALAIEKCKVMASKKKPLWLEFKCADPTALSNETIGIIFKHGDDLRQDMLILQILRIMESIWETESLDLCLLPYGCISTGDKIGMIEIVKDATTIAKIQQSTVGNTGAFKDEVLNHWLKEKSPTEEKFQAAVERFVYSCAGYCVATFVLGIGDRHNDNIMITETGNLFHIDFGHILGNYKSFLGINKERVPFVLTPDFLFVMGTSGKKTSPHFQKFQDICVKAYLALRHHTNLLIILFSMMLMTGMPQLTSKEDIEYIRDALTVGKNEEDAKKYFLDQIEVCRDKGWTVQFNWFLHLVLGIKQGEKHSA
T2 sequence (O02696 whole entry, chain 2 of 2, further chain): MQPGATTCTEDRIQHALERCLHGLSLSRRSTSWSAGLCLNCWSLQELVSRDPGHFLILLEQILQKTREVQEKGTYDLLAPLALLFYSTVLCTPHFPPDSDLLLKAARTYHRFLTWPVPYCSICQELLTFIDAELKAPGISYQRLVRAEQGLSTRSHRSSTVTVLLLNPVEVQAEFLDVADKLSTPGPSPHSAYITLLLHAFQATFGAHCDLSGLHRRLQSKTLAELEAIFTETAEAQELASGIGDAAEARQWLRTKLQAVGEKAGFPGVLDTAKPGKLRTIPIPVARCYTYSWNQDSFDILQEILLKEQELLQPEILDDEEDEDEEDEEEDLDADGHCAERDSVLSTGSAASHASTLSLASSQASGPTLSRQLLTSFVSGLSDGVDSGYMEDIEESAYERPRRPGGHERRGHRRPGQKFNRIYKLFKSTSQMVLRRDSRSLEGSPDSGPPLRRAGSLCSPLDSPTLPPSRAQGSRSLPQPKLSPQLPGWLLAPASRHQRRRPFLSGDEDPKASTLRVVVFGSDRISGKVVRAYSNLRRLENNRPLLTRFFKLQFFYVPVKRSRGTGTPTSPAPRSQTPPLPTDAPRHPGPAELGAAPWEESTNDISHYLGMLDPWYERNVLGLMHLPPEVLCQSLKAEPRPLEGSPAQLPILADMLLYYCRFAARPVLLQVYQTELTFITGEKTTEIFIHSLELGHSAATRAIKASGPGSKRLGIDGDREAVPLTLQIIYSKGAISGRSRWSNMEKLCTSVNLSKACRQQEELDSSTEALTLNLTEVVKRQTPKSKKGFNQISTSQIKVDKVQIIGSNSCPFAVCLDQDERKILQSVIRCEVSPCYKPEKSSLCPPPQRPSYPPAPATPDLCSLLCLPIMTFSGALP

Assay [3] has as its target T3, p110β-p85 complex (Homo sapiens (assumed), UniProt P42338;O00459).
T3 construct: p110β catalytic subunit of class IA PI3K; plasmid as previously described; p85 regulatory subunit; the legend says only p85; also called PI3Kβ
Described as above.

The target in assay [4] is T4, p110γ-p84 complex (Homo sapiens p110γ; Mus musculus p84, UniProt P48736;Q3U6Q4).
T4 construct: Homo sapiens p110γ (PIK3CG), full-length; Mus musculus p84 regulatory subunit of PI3Kγ; The purification tag stood on p84 only; also called PI3Kγ p110γ-p84; not shown: His10, N-terminal, cleaved; 2x Strep, N-terminal, cleaved
T4 sequence (P48736 whole entry, chain 1 of 2): as the sequence (P48736 whole entry, chain 1 of 2) above
T4 sequence (Q3U6Q4 whole entry, chain 2 of 2): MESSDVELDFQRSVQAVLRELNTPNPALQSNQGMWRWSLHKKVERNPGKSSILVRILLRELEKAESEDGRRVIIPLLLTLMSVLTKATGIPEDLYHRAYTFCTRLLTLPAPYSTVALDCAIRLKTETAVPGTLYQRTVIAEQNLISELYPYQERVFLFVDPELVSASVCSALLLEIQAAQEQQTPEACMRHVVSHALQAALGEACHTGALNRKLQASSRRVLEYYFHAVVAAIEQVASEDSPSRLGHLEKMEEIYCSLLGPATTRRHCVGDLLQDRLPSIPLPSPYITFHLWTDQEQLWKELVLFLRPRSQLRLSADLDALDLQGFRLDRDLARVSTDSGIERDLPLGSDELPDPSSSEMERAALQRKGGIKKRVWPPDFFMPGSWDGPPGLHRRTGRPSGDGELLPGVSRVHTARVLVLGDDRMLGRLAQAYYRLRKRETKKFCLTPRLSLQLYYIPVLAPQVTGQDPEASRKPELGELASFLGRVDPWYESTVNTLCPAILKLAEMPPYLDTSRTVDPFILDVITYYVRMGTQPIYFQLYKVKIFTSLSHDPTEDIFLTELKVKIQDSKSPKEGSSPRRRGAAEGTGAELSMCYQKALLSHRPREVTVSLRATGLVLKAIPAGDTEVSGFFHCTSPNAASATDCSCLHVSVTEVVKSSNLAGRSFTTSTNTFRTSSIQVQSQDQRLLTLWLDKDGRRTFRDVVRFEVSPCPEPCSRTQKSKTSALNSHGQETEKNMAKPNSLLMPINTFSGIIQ
The assay is described as above.

Assay [5] has as its target T5, p110α-p85 complex (Homo sapiens (assumed), UniProt P42336;O00459).
T5 construct: p110α catalytic subunit of class IA PI3K; plasmid as previously described; p85 regulatory subunit; the legend says only p85; also called PI3Kα
The assay is described as above.

The target in assay [6] is T6, p110γ-p101 complex (Homo sapiens p110γ; Sus scrofa p101, UniProt P48736;PDB).
T6 construct: p110γ, Homo sapiens, from plasmid pMultiBac-hsp110γ-ssp101; p101 regulatory subunit, Sus scrofa, from plasmid pMultiBac-hsp110γ-ssp101; The purification tag stood on the N-terminus of p101 and was removed by TEV protease; also called p110gp101; not shown: 10x histidine, N-terminal, cleaved; 2x strep, N-terminal, cleaved
As to the kind of experiment: BLI; His-NB7 (500 nM) immobilised on Anti-Penta-His (HIS1K) biosensor, dipped into p110γ, p110γ-p84 or p110γ-p101 (50-1.9 nM); association 600 s, dissociation 1200 s; Octet buffer 20 mM Tris pH 8.5, 100 mM NaCl, 50 mM ammonium sulfate, 0.1% BSA, 0.02% Tween 20; 1:1 model; the sheet gives one set of constants for each analyte concentration (column Conc. (nM)).
T6 sequence (P48736 whole entry, chain 1 of 2): as the sequence (P48736 whole entry, chain 1 of 2) above
T6 sequence (O02696 whole entry, chain 2 of 2, further chain): as the sequence (O02696 whole entry, chain 2 of 2, further chain) above

B1: Nanobody NB7-PIK3CG (VHH)
VHH: QVQLVESGGGLVQPGGSLRLSCAASGSIFSINAMGWYRQAPGKQRELVAHITSGGSTNYADSVKGRFTISRDNAKNTVYLQMNSLKPEDTAVYYCNEAGDPFLGSTWNGPPAFGSWGQGTQVTVSS
notes: the nanobody chain of PDB 8DP0 (deposited here); Expressed from a pMESy4 vector; also called His-NB7; nanobody 7; source: E. coli WK6 periplasm, purified (HisTrap, Superdex 75); not shown: His6, C-terminal, kept
Turning to B1, the binding result in assay [1], in assay [3] and in assay [5] was “no binding (tested: 50 nM)” each time. For the same molecule, the Kd in assay [2] and in assay [4] was roughly 2 nM in each case.

B2: Nanobody NB7-PIK3CG (VHH)
VHH: B1 VHH
notes: Expressed from a pMESy4 vector; first described in Rathinaswamy et al., 2021b; also called His-NB7; nanobody 7; source: periplasm of WK6 E. coli, purified (HisTrap, Superdex 75); not shown: His6, C-terminal, kept
Take B2: the kon in assay [6] is 105000 M⁻¹ s⁻¹ and 111000 M⁻¹ s⁻¹ and 50200 M⁻¹ s⁻¹.
